Data set [1] is described as follows: Circular dichroism wavelength scans and temperature melts (Tm). The data set is classed as physicochemical. A general note: Circular dichroism is widely used to follow secondary structure.
Data set [2] has as its target VirB8-like protein from Rickettsia typhi (Rickettsia typhi). Put plainly: BLI (Octet); biotinylated target on streptavidin sensors, miniprotein as analyte.
The target of a further data set is VirB8. The data set is classed as binding, Rickettsia typhi. The settings on record: read-out: Octet kD.

What is called Kd is the constant that tells how readily two partners part at equilibrium.

B1: VirB8_mb (designed binder)
chain: MSHHHHHHHHSENLYFQSGGGNAEEITEKATLVGIEAWLLAKDEEQKKKVRTLNRQVKKLLQQNDLDQAKRVLDQLKSVLEDLKS
The molecule B1 displayed a TM in data set [1] of 66.2 °C. Besides, the Kd (in data set [2]; at VirB8) was 0.5 nM each time.

For the origin of these results see patent US20240376156A1, “MULTIPLE DE NOVO DESIGNED PROTEIN BINDING PROTEINS” (UNIVERSITY OF WASHINGTON, priority 2021, published 2024).
